Tests used:
mouse GPR12 = biological target: T1, mouse GPR12 (Mus musculus, UniProt P35412); test: cAMP production in CHO-K1-cell stable expression system (CHO-K1-GPR12); type: cell-based; conditions: CHO-K1-GPR12, peptide 10^-9 M, Forskolin 10^-5 M, 30 minutes
T1 construct: expressed in transfected cells
T1 sequence (P35412 1-334): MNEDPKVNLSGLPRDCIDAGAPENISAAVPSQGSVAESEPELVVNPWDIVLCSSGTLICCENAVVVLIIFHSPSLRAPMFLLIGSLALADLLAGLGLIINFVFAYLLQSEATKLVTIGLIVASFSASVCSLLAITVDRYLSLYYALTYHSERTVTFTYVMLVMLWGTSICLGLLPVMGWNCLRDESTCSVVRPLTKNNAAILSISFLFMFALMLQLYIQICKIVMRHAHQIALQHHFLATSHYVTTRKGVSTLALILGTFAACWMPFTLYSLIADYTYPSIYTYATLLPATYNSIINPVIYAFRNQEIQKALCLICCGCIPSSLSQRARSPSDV
Description: The preparation of cells stably expressing GPR12 was conducted by a conventional method, and hereinafter described briefly. A vector (pcDNA3.1-GPR12) in which a gene (cDNA) encoding mouse GPR12 (SEQ ID NO: 8) was inserted at the downstream of a CMV promoter of pcDNA3.1 (TM) (Invitrogen Corporation) was prepared, 10 μg of the vector was mixed with 250 μL of medium OPTI-MEM™ (Invitrogen Corporation), and 10 μg of Lipofectamine™ 2000 Reagent (Invitrogen Corporation) was mixed with 250 μL of medium OPTI-MEM™, 5 minutes later both mixtures were mixed, and the resultant mixture was left over at room temperature for 20 minutes to prepare a transfection reagent. Chinese hamster ovary cells (CHO-K1) [ATCC Cat. No. CCl-61] plated onto a 6-well plate at 1.5×10^6 cells/well on the previous day in advance were washed with medium OPTI-MEM™ once, and the above-mentioned transfection reagent (vector and Lipofectamine™ 2000 Reagent) was added to the cells dropwise to perform transfection. The resultant transfected cells were incubated at 37° C. for 5 hours in a CO2 incubator, and then the medium was replaced by Ham's F12 medium. Further, the next day the medium was exchanged with Ham's F12 medium containing 100 μg/mL of Geneticin® (Invitrogen Corporation), and furthermore the next day the medium was exchanged with the same medium containing 200 μg/mL of Geneticin®, and the following day the medium was exchanged with the same medium containing 700 μg/mL of Geneticin®, and after that, culturing was continued under the conditions of 37° C. and 5% CO2 in a medium containing Geneticin® at the same concentration. […]
The measured intracellular cAMP level was evaluated in terms of a ratio (Fold) of each intracellular cAMP level with respect to the mean of the intracellular cAMP level in the (−) group that is set as unity, in which CHO-K1-GPR12 cells were cultured in the medium containing no peptide.

mGPR12 = biological target: T2, mGPR12 (Mus musculus, UniProt P35412); test: CREB phosphorylation in CHO-K1-cell stable expression system (western blotting); type: cell-based; design: expressed in transfected cells; conditions: CHO-K1-mGPR12 cells
T2 sequence (P35412 1-334): T1 sequence (P35412 1-334)
Description: Using Nesfatin-1M30 (Mid-segment) as a test substance, the method for bringing the test substance into contact with cells was conducted as follows. The confluent CHO-K1 cells and CHO-K1-mGPR12 cells were recovered in 10-cm dishes, plated onto 10-cm dishes by dividing the cell colony in four quarters, and cultured for 2 days in Ham's F12 medium (as for CHO-K1-mGPR12, 700 μg/mL of Geneticin® was contained). After removing the medium, the resultant cultured cells were washed once with the medium containing no Geneticin®, and then Ham's F12 medium containing 10^−9 M of Nesfatin-1M30 (Mid-segment) peptide was added to the cells. […] SDS-gel electrophoresis was conducted by using the protein extracts from each cells; and then the protein was transcribed into Amersham hybond-P[…] (GE Healthcare); and using anti-phosphorylation CREB antibody (Cell Signaling Technology, Inc., Catalog No. #9191) for detecting the phosphorylated CREB, the phosphorylated CREB was detected with an ECL plus western blotting detection reagents (GE Healthcare) kit, in accordance with the attached protocol. […]
Further, the concentration dependence was examined by using Nesfatin-1M30 (Mid-segment: SEQ ID NO: 11). […] Subsequently, cellular proteins were extracted, and the phosphorylated CREB (p-CREB) was detected by a western blotting method.

intracellular cAMP level compared with the group (-) cultured in medium containing no peptide (mouse GPR12): about 5 fold
phosphorylation of CREB (p-CREB band), time course (mGPR12; 10^-9 M, 15 minutes or later after contact): phosphorylation of CREB was induced
Substance: Nesfatin-1M30: mid-segment of Nesfatin-1, human-derived Nesfatin-1M30, SEQ ID NO: 11 (PDTGLYYDEYLKQVIDVLETDKHFREKLQK; listed as Homo sapiens)
phosphorylation of CREB, concentration dependence (mGPR12; 10^-12 M to 10^-9 M, 15 minutes): enhanced depending on the M30 peptide concentration
